Changes are numbered by the printed parent chain.
Experiments:
[1] = biological target: TDP(1–77)-C39/C50S (human) (UniProt Q13148); experiment: SEC; protein at 500 µM; Superdex-200 Increase 10/300 GL; Buffer A; room temperature
[2] = biological target: TDP(1–77)-C39/C50S (human) (UniProt Q13148); experiment: SEC; protein at 10 µM; Superdex-200 Increase 10/300 GL; Buffer A; room temperature
[3] = biological target: TDP(1–77)-C39/C50S (human) (UniProt Q13148); experiment: SEC; protein at 50 µM; Superdex-200 Increase 10/300 GL; Buffer A (25 mM Tris-HCl, pH 8.0, 150 mM NaCl); room temperature; apparent MW from standard proteins
[4] = biological target: TDP(1–77)-C39/C50S (human) (UniProt Q13148); experiment: SEC; protein at 250 µM; Superdex-200 Increase 10/300 GL; Buffer A; room temperature
[5] = biological target: the molecule itself; experiment: SEC; protein at 50 µM; Superdex-200 Increase 10/300 GL; Buffer A (25 mM Tris-HCl, pH 8.0, 150 mM NaCl); room temperature; apparent MW from standard proteins
[6] = biological target: the molecule itself; experiment: SEC; protein at 250 µM; Superdex-200 Increase 10/300 GL; Buffer A; room temperature
[7] = biological target: the molecule itself; experiment: SEC; protein at 500 µM treated with 5 mM DTT; Superdex-200 Increase 10/300 GL; Buffer A; room temperature
[8] = biological target: the molecule itself; experiment: SEC; protein at 10 µM; Superdex-200 Increase 10/300 GL; Buffer A; room temperature
[9] = biological target: the molecule itself; experiment: SEC; protein at 500 µM; Superdex-200 Increase 10/300 GL; Buffer A; room temperature
[10] = biological target: the molecule itself; experiment: SEC; protein at 50 µM; Superdex-200 Increase 10/300 GL; Buffer A (25 mM Tris-HCl, pH 8.0, 150 mM NaCl); room temperature; apparent MW from standard proteins; remark: listed apart in the source
[11] = biological target: the molecule itself; experiment: SEC; series of different protein concentrations (Fig. S1, Fig. S2D,E); Buffer A; room temperature

Molecule: TDP(1–77)-C39/C50S (from UniProt Q13148 1-77) (domain or fragment)
- stoichiometry N [1]: 1.8
- stoichiometry N [2]: 1.7
- stoichiometry N [3]: 1.7
- stoichiometry N [4]: 1.8

B1: TDP(1–77) (domain or fragment, human, UniProt Q13148 1-77, looked up)
chain: MSEYIRVTEDENDEPIEIPSEDDGTVLLSTVTAQFPGACGLRYRNPVSQCMRGVRLVEGILHAPDAGWGNLVYVVNY
notes: TDP-43, human, residues 1-77; pET22b, Nde I/Xho I; C-terminal His6 surmised; Printed theoretical MW 9.6 kDa; PDB 2N4P (cited) is His6-TDP(1–77); also called N-terminal 77-residue construct; wild-type TDP(1–77); source: E. coli BL21 (DE3), purified (Ni2+-NTA, SEC)
- stoichiometry N [5]: 1.8
- stoichiometry N [6]: 2.1
- stoichiometry N [7]: 2.4
- stoichiometry N [8]: 1.7
- stoichiometry N [9]: 2.3

B2: TDP(1–89) (domain or fragment, human, UniProt Q13148 1-89, looked up)
chain: MSEYIRVTEDENDEPIEIPSEDDGTVLLSTVTAQFPGACGLRYRNPVSQCMRGVRLVEGILHAPDAGWGNLVYVVNYPKDNKRKMDETD
notes: TDP-43, human, residues 1-89; pET22b, Nde I/Xho I; C-terminal His6 surmised; Printed theoretical MW 11.1 kDa; also called TDP-43 NTD; source: E. coli BL21 (DE3), purified (Ni2+-NTA, SEC)
- stoichiometry N [10]: 2.4

B3: TDP(1–89) Cys mutant (Cys39 and Cys50 to Ser) (domain or fragment, human, UniProt Q13148 1-89, looked up)
chain: B2 chain with C39S, C50S
notes: TDP-43, human, residues 1-89 with Cys39 and Cys50 mutated to Ser; pET22b, Nde I/Xho I; C-terminal His6 surmised; also called TDP(1–89) mutant; source: E. coli BL21 (DE3), purified (Ni2+-NTA, SEC)
- binding result [11]: binds

Reference: PMC5522446, “The N-terminal dimerization is required for TDP-43 splicing activity” (Scientific Reports, 2017)
